In test [1] the target is cynomolgus monkey IgE (in cynomolgus serum, Harlan Sera-Lab Ltd) (cynomolgus monkey). Kind of test: capture ELISA, Test 1, Cyno 1.
The target is the same in test [2]. Kind of test: capture ELISA, Test 1, Cyno 2.
The target is the same in test [3]. As to the kind of experiment: capture ELISA, Test 1, Cyno 3.
The target is the same in test [4]. Kind of test: capture ELISA, Test 1, Cyno 5.
Test [5] shares this target. Kind of test: capture ELISA, Test 1, Cyno 7.
Test [6] has the same target. As to the kind of experiment: capture ELISA, Test 2, Cyno 1.
The target is the same in test [7]. Kind of test: capture ELISA, Test 2, Cyno 2.
Test [8] has the same target. As to the kind of experiment: capture ELISA, Test 2, Cyno 3.
Test [9] has the same target. As to the kind of experiment: capture ELISA, Test 2, Cyno 5.
Test [10] has the same target. As to the kind of experiment: capture ELISA, Test 2, Cyno 7.

Regarding E25 (antibody), the IgE concentration detected was determined as 172 ng/mL in [1]; 52 ng/mL in [2]; 166 ng/mL in [3]; 232 ng/mL in test [4]; 0 ng/mL in test [5]; 146 ng/mL in test [6]. Also, the IgE concentration detected in test [7] turned out to be 104 ng/mL; in test [8], 135 ng/mL; in test [9], 252 ng/mL; in test [10], 0 ng/mL.

For the origin of these results see patent US20090117124A1.
